Measurements as given in paper PMC12302554.

Experiments:
[1] = test system: BC19 CAR on CAR-T cells (anti-BCMA scFv, humanized anti-CD19 scFv, hinge); assay: flow cytometry; details: SPR: Biacore 1K, CM5 chip, protein coupled at 20 ug/mL in sodium acetate pH 5.0 (running buffer not given); cell binding: D-PBS, 4.5 g/L glucose, 5 mM MgCl2, 0.
[2] = test system: BCMA-CD19-His fusion protein (bispecific BC19 CAR ectodomain: anti-BCMA scFv + humanized anti-CD19 scFv + hinge); assay: SPR; details: multi-cycle kinetics, 1:1 fit, 7.8-125 nM aptamer; SPR: Biacore 1K, CM5 chip, protein coupled at 20 ug/mL in sodium acetate pH 5.0 (running buffer not given); cell binding: D-PBS, 4.5 g/L glucose, 5 mM MgCl2, 0.

Sequence | Kd [1] | Kd [2]
TTCAGCACTCCACGCATAGCACGCTGCCGTGTGCTGCATGTGGTCGTGTGTCCGTGCCTATGCGTGCTACCGTGAA [FAM-Aptamer A3] | 17 nM | –
TTCAGCACTCCACGCATAGCACGCTGCCGTGTGCTGCATGTGGTCGTGTGTCCGTGCCTATGCGTGCTACCGTGAA [Aptamer A3] | – | 37 nM
